Measured values taken from article PMC8260448.

Target: thrombin (UniProt P00734;P00734 315-363;364-622)
Assay: fluorescence polarization

GGTTGGTGTGGTTGG (structured_DNA, T3 replaced by 5-ethynyl-dU clicked to inactivated N-acyl sulfonamide 2b) [TBA(3)-2b]
Kd: 0.395 µM
